B1: Pistol ribozyme (parent)
chain: GGGUCGUUGUUCCAUAAUCGCGUGGAUAUGGCACGCAAGUUUCUACCGGGCACCGUAAAUGUCCGACUGGAGCCGUUCGGGCGGCUAUAAACAGACCUCAGGCCCGAAGCGUGGCGGCACCUGCCGCCGGUGGUAAAAAAGAUCGGAAGAGCACACGUCU

The variants in the data set derive from B1. The data set can be described thus: aptazyme ON/OFF ratio, guanine; higher = stronger switching; co-transcriptional cleavage with and without guanine.
For the variant U7C U8C G9C U10C U11C C12G C13A, the “aptazyme ON/OFF ratio” value is 1.28.

Consider U7C U8C G9C U10C U11C C12G C13G, for which the “aptazyme ON/OFF ratio” value is 1.19.

On to U7C U8C G9C U10C U11C C12G C13U, for which the “aptazyme ON/OFF ratio” value was found to be 1.1.

With U7C U8C G9C U10G U11A C12G C13G, the “aptazyme ON/OFF ratio” value was found to be 1.11.

Regarding U7C U8C G9C U10G U11A C12G C13U, the “aptazyme ON/OFF ratio” value is 1.08.

For U7C U8C G9C U10G U11A C12G C13A, the “aptazyme ON/OFF ratio” value stood at 1.05.

As to U7C U8C G9U U10A U11C C12G C13G, the “aptazyme ON/OFF ratio” value is 1.19.

With U7C U8C G9U U10A U11C C12G C13A, the “aptazyme ON/OFF ratio” value was 1.17.

Turning to U7C U8C G9U U10A U11C C12G C13U, the “aptazyme ON/OFF ratio” value was found to be 1.15.

Take U7C U8C G9C U11C C12U: the “aptazyme ON/OFF ratio” value was 1.32.

Consider U7C U8C G9C U11C C12A, for which the “aptazyme ON/OFF ratio” value is 1.22.

As for U7C U8C G9C U11C C12G, the “aptazyme ON/OFF ratio” value was found to be 1.24.

U7C U8C G9U U10C C12A C13G: the “aptazyme ON/OFF ratio” value turned out to be 1.09.

With U7C U8C G9U U10C C12A C13A, the “aptazyme ON/OFF ratio” value is 1.17.

With U7C U8C G9U U10C C12A C13U, the “aptazyme ON/OFF ratio” value was 1.07.

Consider U7C U8C G9C U10G U11A C12A C13A, for which the “aptazyme ON/OFF ratio” value came to 1.16.

Take U7C U8C G9C U10G U11A C12A C13U: the “aptazyme ON/OFF ratio” value stood at 1.11.

With U7C U8C G9C U10G U11A C12A C13G, the “aptazyme ON/OFF ratio” value was 1.11.

Regarding U7C U8C G9C U10G U11A C12U C13A, the “aptazyme ON/OFF ratio” value turned out to be 1.07.

As for U7C U8C G9C U10G U11A C12U C13U, the “aptazyme ON/OFF ratio” value is 1.09.

Take U7C U8C G9C U10G U11A C12U C13G: the “aptazyme ON/OFF ratio” value worked out at 1.07.

Consider U7C U8C G9C U10A U11C C12U C13G, for which the “aptazyme ON/OFF ratio” value worked out at 1.13.

For the variant U7C U8C G9C U10A U11C C12U C13U, the “aptazyme ON/OFF ratio” value was 1.17.

For U7C U8C G9C U10A U11C C12U C13A, the “aptazyme ON/OFF ratio” value is 1.13.

As for U7C U8C G9U U10C C12G, the “aptazyme ON/OFF ratio” value stood at 1.22.

Consider U7C U8C G9U U10C C12U, for which the “aptazyme ON/OFF ratio” value came out at 1.32.

As for U7C U8C G9U U10C C12A, the “aptazyme ON/OFF ratio” value stood at 1.29.

For U7C U8C G9U U10A C13G, the “aptazyme ON/OFF ratio” value was 1.09.

Take U7C U8C G9U U10A C13A: the “aptazyme ON/OFF ratio” value came to 1.14.

Turning to U7C U8C G9U U10A C13U, the “aptazyme ON/OFF ratio” value stood at 1.27.

As for U7C U8C G9C U10G U11C C13G, the “aptazyme ON/OFF ratio” value was found to be 1.08.

On to U7C U8C G9C U10G U11C C13A, for which the “aptazyme ON/OFF ratio” value amounted to 1.22.

For the variant U7C U8C G9C U10G U11C C13U, the “aptazyme ON/OFF ratio” value is 1.08.

Take U7C U8C G9C U10A U11C: the “aptazyme ON/OFF ratio” value turned out to be 1.39.

With U7C U8C G9C U10A U11A, the “aptazyme ON/OFF ratio” value was determined as 1.44.

Consider U7C U8C G9C U10A U11G, for which the “aptazyme ON/OFF ratio” value was 1.32.

Take U7C U8C G9U U10A C12G: the “aptazyme ON/OFF ratio” value is 1.22.

Turning to U7C U8C G9U U10A C12A, the “aptazyme ON/OFF ratio” value was 1.22.

For the variant U7C U8C G9U U10A C12U, the “aptazyme ON/OFF ratio” value is 1.17.

Consider U7C U8C G9C U10C U11A C13G, for which the “aptazyme ON/OFF ratio” value is 1.13.

U7C U8C G9C U10C U11A C13A: the “aptazyme ON/OFF ratio” value came to 1.14.

U7C U8C G9C U10C U11A C13U: the “aptazyme ON/OFF ratio” value was 1.05.

In the case of U7C U8C G9C U10C U11G C12A, the “aptazyme ON/OFF ratio” value is 1.18.

U7C U8C G9C U10C U11G C12U: the “aptazyme ON/OFF ratio” value came to 1.15.

For U7C U8C G9C U10C U11G C12G, the “aptazyme ON/OFF ratio” value worked out at 1.13.

U7C U8C G9C U11C C12A C13A: the “aptazyme ON/OFF ratio” value worked out at 1.16.

Turning to U7C U8C G9C U11C C12A C13G, the “aptazyme ON/OFF ratio” value was 1.04.

As for U7C U8C G9C U11C C12A C13U, the “aptazyme ON/OFF ratio” value was found to be 1.18.

For U7C U8C G9C U10C C12U, the “aptazyme ON/OFF ratio” value was 1.94.

For U7C U8C G9C U10C C12A, the “aptazyme ON/OFF ratio” value is 1.08.

For U7C U8C G9C U10C C12G, the “aptazyme ON/OFF ratio” value worked out at 1.14.

Turning to U7C U8C G9C U10A U11G C13U, the “aptazyme ON/OFF ratio” value is 1.17.

On to U7C U8C G9C U10A U11G C13A, for which the “aptazyme ON/OFF ratio” value came to 1.13.

As to U7C U8C G9C U10A U11G C13G, the “aptazyme ON/OFF ratio” value came out at 1.14.

Regarding U7C U8C G9C U10G U11G C12G C13A, the “aptazyme ON/OFF ratio” value stood at 1.11.

For the variant U7C U8C G9C U10G U11G C12G C13U, the “aptazyme ON/OFF ratio” value was 1.05.

With U7C U8C G9C U10G U11G C12G C13G, the “aptazyme ON/OFF ratio” value came out at 1.09.

On to U7C U8C G9C U10G U11A, for which the “aptazyme ON/OFF ratio” value amounted to 1.3.

On to U7C U8C G9C U10G U11G, for which the “aptazyme ON/OFF ratio” value came to 1.09.

As for U7C U8C G9C U10G U11C, the “aptazyme ON/OFF ratio” value came out at 1.5.

As for U7C U8C G9C U11A, the “aptazyme ON/OFF ratio” value was 1.71.

In the case of U7C U8C G9C U11C, the “aptazyme ON/OFF ratio” value amounted to 1.43.

Take U7C U8C G9C U11G: the “aptazyme ON/OFF ratio” value was determined as 1.24.

As for U7C U8C G9U U10A U11G C12A C13G, the “aptazyme ON/OFF ratio” value stood at 1.05.

U7C U8C G9U U10A U11G C12A C13A: the “aptazyme ON/OFF ratio” value amounted to 1.19.

On to U7C U8C G9U U10A U11G C12A C13U, for which the “aptazyme ON/OFF ratio” value was 1.12.

Take U7C U8C G9U U10A U11C C12U C13A: the “aptazyme ON/OFF ratio” value was determined as 1.16.

U7C U8C G9U U10A U11C C12U C13G: the “aptazyme ON/OFF ratio” value was found to be 1.14.

Turning to U7C U8C G9U U10A U11C C12U C13U, the “aptazyme ON/OFF ratio” value turned out to be 1.15.

Turning to U7C U8C G9C U10C U11G C13A, the “aptazyme ON/OFF ratio” value amounted to 1.33.

As for U7C U8C G9C U10C U11G C13U, the “aptazyme ON/OFF ratio” value came to 1.21.

As to U7C U8C G9C U10C U11G C13G, the “aptazyme ON/OFF ratio” value was 1.19.

On to U7C U8C G9C U10A U11C C12A C13G, for which the “aptazyme ON/OFF ratio” value worked out at 1.09.

For the variant U7C U8C G9C U10A U11C C12A C13A, the “aptazyme ON/OFF ratio” value was 1.09.

For U7C U8C G9C U10A U11C C12A C13U, the “aptazyme ON/OFF ratio” value stood at 1.13.

Take U7C U8C G9U C12A C13A: the “aptazyme ON/OFF ratio” value turned out to be 1.05.

On to U7C U8C G9U C12A C13G, for which the “aptazyme ON/OFF ratio” value turned out to be 1.1.

In the case of U7C U8C G9U C12A C13U, the “aptazyme ON/OFF ratio” value worked out at 1.22.

As to U7C U8C G9C U11A C12A C13A, the “aptazyme ON/OFF ratio” value stood at 1.1.

U7C U8C G9C U11A C12A C13U: the “aptazyme ON/OFF ratio” value is 1.13.

As to U7C U8C G9C U11A C12A C13G, the “aptazyme ON/OFF ratio” value is 1.14.

U7C U8C G9C U11A C12A: the “aptazyme ON/OFF ratio” value came to 1.23.

As for U7C U8C G9C U11A C12G, the “aptazyme ON/OFF ratio” value was determined as 1.14.

The values above are taken from the RNAGym collection of RNA variant scans (doi:10.1021/acssynbio.7b00057).
